The results in this text go back to the DeepSol protein solubility set.

The series in a line: soluble on expression in E. coli; label from the status in PepcDB or PDB records.
Turning to “MEQLRAAARLQIVLGHLGRPSAGAVVAHPTSGTISSASFHPQQFQYTLDNNVLTLEQRKFYEENGFLVIKNLVPDADIQRFRNEFEKICRKEVKPLGLTVMRDVTISKSEYAPSEKMITKVQDFQEDKELFRYCTLPEILKYVECFTGPNIMAMHTMLINKPPDSGKKTSRHPLHQDLHYFPFRPSDLIVCAWTAMEHISRNNGCLVVLPGTHKGSLKPHDYPKWEGGVNKMFHGIQDYEENKARVHLVMEKGDTVFFHPLLIHGSGQNKTQGFRKAISCHFASADCHYIDVKGTSQENIEKEVVGIAHKFFGAENSVNLKDIWMFRARLVKGERTNL”, the “soluble on expression in E. coli” value is reported as “not soluble”.

As to “GSKNCPDPELCRQSFRRFCYQEVSGPQEALSQLRQLCRQWLQPELHTKEQILELLVMEQFLTILPEEIQARVRHRCLMSSKEIVTLVEDFHRASKKPK”, the “soluble on expression in E. coli” value is given as “soluble”. The entry for “MGSDKIHHHHHHMCRLSLLKSSHLFKEQLLAASYSIQCVSQIAILGAPLWNALMAGANRQDQNGPANPFCRYEYLHALELSGCVGEQTGWRPMHLVVSEAGQIGENNQASAQGGDRQIDPSKVLAVMPLYLKGHSYGEYVFDWAWAQAYERHGLEYYPKLVNAIPFTPVTGSRIGFRVDLSEAQKAGLIGKIGEHLDLLTKACSASSWHSLFLLESERQPLVSKGHLQRLGTQFHWFNRDYQSFDDFLSRLTSRRRKSILKERRAITKAGLKFHFIDGAEITEDELTHFVHCYQRTYYKRSGHQGYLNAAFFSAVVKNMADKVRLLMVERPQANKLEAQAGSDARSEVGSAQEIEPIAAALYFVGGDCLYGRYWGALEEIEGLHFETCYYQGIDYAIAQRLKKFDAGAQGEHKVLRGFEPIPTYSIHEILHGDFRRAIADFIEQEARAVKIYMNELEAILPFKREGD” is “not soluble”.

“MGHHHHHHSHCDKCEGRGGKKGAVECCPNCRGTGMQIRIHQIGPGMVQQIQSVCMECQGHGERISPKDRCKSCNGR”: the “soluble on expression in E. coli” value is “soluble”. To “MKHEIKHDPAFRALTPKWHHGYRFQYEPAQKAHVVLYPEGMIKLNDSASLIGGLIDGERTIAAIIAELQREFPNIPELGMDVDDFMKVAKEKYWIDLV” belongs “not soluble”; to “MGHHHHHHSHMNLGKESRAQTLQNGRRHIHHLGNQLQLNQHCLDTAFNFFKMAVSRHLTRGRKMAHVIAACLYLVCRTEGTPHMLLDLSDLLQVNVYVLGKTFLLLARELCINAPAIDPCLYIPRFAHLLEFGEKNHEVSMTALRLLQRMKRDWMHTGRRPSGLCGAALLVAARMHDFRRTVKEVISVVKVCESTLRKRLTEFEDTPTSQLTIDEF”, “not soluble”; to “MPMIIKQEQFIPKDTVETTIDLLIRNLTTIKDNTGEFLLDFDGLKVDDKSWTIWNWPQGVGLYGIYKNYRNTKSEKALQVVNDWFEGRMQEGAPPKNVNTMAPLLTMAYLYEDTKDSKYIPYLEQWAEWVMEEMPRTNEGGLQHATYGPENKNQLWDDTLMMTVLPLAKIGKLLNRLDYLEEAKHQFLIHIKYLQDKKSGLWYHGWTFEGNHNYAEALWARGNCWITIAIPEIIEILELPKGDSLREFLLSTLNAQVAALAKYQDESGLWHTLINDSNSYLESSATAGFAYGILKAVHKKYISSEYEEVANKAIAGLLNEIDETGEVQHVSVGTGMGDNLDFYRTIGMTAMPYGQSLTILCLTELLVSYC”, “not soluble”. As to “GHMIQESTMEMTNAQRLILSNQYKMMTMLDPANAERYRRLQTIIERGYGLQMRELDREFGELKEETCRTIIDIMEMYHALHVSWSNLQDQQSIDERRVTFLGFDAATEARYLGYVRFMVNVEGRYTHFDAGTHGFNAQTPMWEKYQRMLNVWHACPRQYHLSANEINQIINA”, the “soluble on expression in E. coli” value is given as “soluble”. To “MGSDKIHHHHHHMADDETRKYVIPGLERGLTILMALSRSHREMSLAEIVKCVEWPKASVYRAVQTLEYMGFVRRHPSSGLYSLGVSVLRLGFEYVSSLDLVQVGQPVIESLRDRSGCSSHIVIRDGRDVIYVARVSAAGTTTHRVSVGTRLPVHRTSLGRVLLTGMSREAFERLYPDPELPDTRPGAPADREALWQLVQDDRARGYVVGESFFQLGISSIVYPLFTQEGDVAGAISIMVPVHEIPAEDRERLRGYVEDAAMTISEMLGYHDPRARRSDMP” belongs “not soluble”; to “MGSDKIHHHHHHMAITIQNHELQVTLKALGATMTSITDSQGVEYLWQGDATYWGGQAPILFPICGSVRNDCVIYRPAQAPHFTGIIPRHGFVRHKTFDYDYISDSSVRFTIKSSKEMLINYPYRFSLEITYTLRNKSIAITYIVKNLESEKNMPYAIGAHPGFNCPLFEKEVFSDYYLEFEQFETCTIPESFPDTGLLDLQARHPFLENQKQLSLNHALFEKDAITLDQLRSKTVYLKSRNHAKGIQLDFDDFENLILWTSNNGGPFLALEPWSSLSTSIEESDILEDKQNIVRLNPKQSKQHSIRITIL”, “not soluble”. The entry for “MSLAAVQVVGSWPSVQPREAPREAIPERGNGFRLLSARLCALRPDDSSSARTEIHLLFDQLISENYSEGSGVAPEDVSALLVQACRLVPLNQNHLVSKVSQLIHHLLNRLQVIVDEQHLDFLLAYTISAIHQCSSWTHREILQALAALVYCNGSKCQKYLPELLGNTGLLMKLSDLAQSDPEVRRAAVHCMANLCLSVPGQPYLEEPYQNVCFQAFLTILQSPKSSDMDDITFCMLLQNALKGIQSLLNGGRMKLTQTDELGALLAVLKKFMFHGLPGLNIEMPTVLYPTPLPQYDGRTPIKEGHHHHHH” is “not soluble”. The entry for “MSLQVSQYLYQNAQSIWGDCISHPFVQGIGRGTLERDKFRFYIIQDYLFLLEYAKVFALGVVKACDEAVMREFSNAIQDILNNEMSIHNHYIRELQITQKELQNACPTLANKSYTSYMLAEGFKGSIKEVAVAVLACGWSYLVIAQNLSQIPNALEDAFYGHWIKGYSSKEFQACVTWNINLLDSLALASSKQEIEKLKEIFIATSEYEYQFWDMAYQSEGGSHHHHHH” is “soluble”; for “AAPFDVTAPQEPVLALVGSDAELTCGFSPNASSEYMELLWFRQTRSTAVLLYRDGQEQEGQQMTEYRGRATLATAGLLDGRATLLIRDVRVSDQGEYRCLFKDNDDFEEAAVYLKVAAVGSDPQISMTVQENGEMELECTSSGWYPEPQVQWRTGNREMLPSTSESKKHNEEGLFTVAVSMMIRDSSIKNMSCCIQNILLGQGKEVEISLPAPFVPRLTPW” it is “not soluble”. For the sequence “MGSDKIHHHHHHQTDTSDERATDSTTAEVTIIYNDERDPLEGFNRAMWDFNYQFLDKYFYRPVAHGYNDILPRPVKTGVNNFVLNFEEPSSMVNNALQGKWGWAANAGGRFTINTTIGLLGVIDVADMMGLQRKQDEFNEVLGYYGVPNGPYFMAPFLGPYVTRELASDWVDGLYFPLSELTMWQSLAKWGLKNLHRRASAIDQERLVDNALDPYTFVKEAYFQHLDYKVYDGDIPVSTDDDELLDEYMTELD”, the “soluble on expression in E. coli” value was “not soluble”. As for “MWNNVTTIKIQFHRIEQLGSVQLDDKNRICKFTSFDGQLELQGRHGRCSVDIESPEFVRFVQFLVNKTEKSNEPIDQRRVFGKFRALEHGVLDVTTYRNRFHGVVARNMILLDNLSIDLSIRMIFALSGKMETNFLSEVEKHGIVRLDNQNRIIEYVANDGKMKLKGQHDGRKDHGTQATQDPV”, the “soluble on expression in E. coli” value is “not soluble”. The entry for “MIKDYLIETMNQDEVNLAITWAAQEGWNPGIHDATCFYQTDPHGFFAGKLNGKTIAIGSAVIYDDFFAFCGFYIVDKSYRDQGYGLELTKARLAYIGNRNAGIDGVINMLDKYARIGYQLAHNNARYCLNKTIKPISSEPHIVPLNQIDFSQLSSYDRLHFPAPRPQFLKCWINQPQSLALAYLIDGQIKGYGVIRTCHKGFKIGPLFAGTPEIAHQLFSNLVPYAKGQLIFLDIPENNPLAIELVSQYQMKKVFATARMYLKGEPPVKKESIYGITTFELG” is “not soluble”; for “MENKEKIFNAQHPLSNVNARSITYRSGGKSPKSPRRVDEENKTDEELGDALGISHRCDECDEMMKFETWVERQDAILECGHGYCKKCIPNIKKDAHTLTKCPVVAVKCRIPNWYQTGQAAKPSHRKSEAARKEYSTKAKLWNFEYKGRPLVVSLRRDATYGDLETSLSMLLNIDLKTNMILIHLPHSYNGADVNYFMKADDSLTNGPYEKDTKLSHLRHPKIAALSLEVTEKKTPSSETPSKENPKSPGPLDSNK” it is “not soluble”; for “MGHHHHHHSHRNLDSRTFITIGDRNFEVEADDLVTISELGRGAYGVVEKVRHAQSGTIMAVKRIRATVNSQEQKRLLMDLDINMRTVDCFYTVTFYGALFREGDVWICMELMDTSLDKFYRKVLDKNMTIPEDILGEIAVSIVRALEHLHSKLSVIHRDVKPSNVLINKEGHVKMCDFGISGYLVDSVAKTMDAGCKPYMAPERINPELNQKGYNVKSDVWSLGITMIEMAILRFPYESWGTPFQQLKQVVEEPSPQLPADRFSPEFVDFTAQCLRKNPAERMSYLELMEHPFF” it is “soluble”. To “MNESGFLIDTHAHIDGHDFAADFDAMLSRAWEAGLSHIVTVGADLESSRAAVALAGRHERIWCAVGIHPHDAGRVTDRCYDEIRTLAQGNPKVAAIGEIGLDFFRDRSPRDEQEQVFRRFIRLARELALPIVVHDRDAHERVMAILREEKARDVGGVLHCFSGDLAMARECVDMGFLISIPGTVTYPSNEALREVVRGVKIEHLLVETDCPYLTPVPHRGKRNEPAYVRLTAEKVAELKGLSLEDVGRITSLNARRLFGIGESDQAARIAYRIRNSLYLNITNRCSNRCSFCAKFDDYTVKGHHLRLDHEPDSAEVLAAVGEPGPVDEIVFCGFGEPMLRLDLIVEVARELKKRGFRIRINTDGQANLVHGRNVLPELQGLVDCISVSLNAADADTYARLCNTPFGTNGFNGICRFLEEARLYIPTVVATAVTVPGIDVAAVRALAESLGVEFREREFAEVGLEHHHHHH” belongs “soluble”; to “MDGSLSRPAVLDRAARQKRGTMARPQSKKKQTQVVRRPRRRGRLVPPGRLIAGRDFPEFLQQAVLLSGSLRQAARKLRVSYSTLRGWFGRRCDEPPEGGGDLLAEHAAAIRAELDAAAERLAMVRGQLDALERGE”, “not soluble”; to “MSLAFGNYPFLTVSEITYTNPINSNIVSEDFDVEIGEATNGTVTSRVGIRVKDITRHIGIFGSTGSGKTNTAILLASQLNAKGVKVIILDWHGEYDQLLKNGFRIYDEKTIVKINPLHLIDLDVEDTVDIIGDVLQLTDPQRFLLYTILLKLKSYRKFSINQLLEVINSIEDTSYWMRDVKYALLRKIFILFTPTASKLFSTVDETSLNDFPDYLTSSTIINLGFISNLKLRKLYSLFLIKLIVESYIREGHHHHHH”, “soluble”.

Turning to “QSAYSRIEAESYSNQSGIQTETCSEGGEDVGFVENGDYTVYNNVDFGDGVGGFQARVASATSGGNIEIRLDSSTGTLIGTCPVAGTGDWQTYTDAKCTVSGVTGKHDVYLVFKGDSGYLFNLNWFTFSE”, the “soluble on expression in E. coli” value is “soluble”.
